Source: US9745556B2, “Variants of glycerol dehydrogenase having D-lactate dehydrogenase activity and uses thereof” (UNIVERSITY OF FLORIDA RESEARCH FOUNDATION, INC., priority 2011, dated 2017)
Positions count from the first letter of the chain named. Names and notes keep the numbering of the source.

Key:
[1] = target: T1, Bacillus coagulans glycerol dehydrogenase (GlyDH/GDH, native SEQ ID NO: 3) variant D121N (Heyndrickxia coagulans, UniProt A0AAN0T381, D121N); experiment: Kinetic properties of mutated glycerol dehydrogenase D121N; type: biochemical; conditions: D121N alone; compared to native enzyme; in words
T1 sequence (A0AAN0T381 1-367 D121N): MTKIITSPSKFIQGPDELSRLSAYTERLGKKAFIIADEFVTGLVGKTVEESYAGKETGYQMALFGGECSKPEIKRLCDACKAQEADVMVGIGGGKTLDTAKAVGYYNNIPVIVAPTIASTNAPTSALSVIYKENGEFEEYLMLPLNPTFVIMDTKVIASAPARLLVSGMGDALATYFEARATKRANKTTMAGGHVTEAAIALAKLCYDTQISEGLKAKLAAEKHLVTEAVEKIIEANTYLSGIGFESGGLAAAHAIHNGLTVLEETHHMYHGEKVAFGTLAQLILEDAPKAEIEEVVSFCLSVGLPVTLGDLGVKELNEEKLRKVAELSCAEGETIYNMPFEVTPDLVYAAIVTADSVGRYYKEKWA
Protocol: (§1) Cultures were grown (LB-glucose medium in pH-controlled fermenters) to mid-exponential phase, harvested, and used for enzyme assays as previously described (23). Glycerol dehydrogenase from strain QZ19 was purified using differential ammonium sulfate precipitation followed by anion-exchange and hydrophobic interaction chromatography. GlyDH and GlyDH* were also purified as N-terminal His-tagged enzymes (33). GlyDH and LDH were assayed using standard methods (34, 35).
(§2) During the development of a D-lactate producing B. coagulans derivative (strain QZ19), a glycerol dehydrogenase (GDH) with two mutations (D121N and F245S) evolved to catalyze the reduction of pyruvate to D-lactate (Table 1 and FIG. 7). The first derivative that produced a significant D-lactate titer, strain QZ15, carried a single mutation that changed the amino acid phenylalanine at position 245 to serine. As strain QZ15 was further selected for higher lactate productivity, the GDH protein acquired a second mutation in amino acid position 121 (D121N) (FIG. 15). Combination of these two mutations led strain QZ19 to produce D-lactic acid at a titer close to 100 g/L in 48 hours at pH 5.0 and 50° C. in pH-controlled fermentations. In order to evaluate the role of each of these two mutations in the catalysis of pyruvate reduction to D-lactate, GDH/LDH enzyme with either of the two substitutions (D121N or F245S) and the protein with both changes were expressed in E. coli, purified, and their biochemical properties were determined.

[2] = target: Bacillus coagulans glycerol dehydrogenase (GlyDH/GDH), native, strain P4-102B, SEQ ID NO: 3 (Heyndrickxia coagulans, UniProt A0AAN0T381); type: biochemical; conditions: native enzyme
Bacillus coagulans glycerol dehydrogenase (GlyDH/GDH), native, strain P4-102B, SEQ ID NO: 3, sequence (A0AAN0T381 entry or part of it): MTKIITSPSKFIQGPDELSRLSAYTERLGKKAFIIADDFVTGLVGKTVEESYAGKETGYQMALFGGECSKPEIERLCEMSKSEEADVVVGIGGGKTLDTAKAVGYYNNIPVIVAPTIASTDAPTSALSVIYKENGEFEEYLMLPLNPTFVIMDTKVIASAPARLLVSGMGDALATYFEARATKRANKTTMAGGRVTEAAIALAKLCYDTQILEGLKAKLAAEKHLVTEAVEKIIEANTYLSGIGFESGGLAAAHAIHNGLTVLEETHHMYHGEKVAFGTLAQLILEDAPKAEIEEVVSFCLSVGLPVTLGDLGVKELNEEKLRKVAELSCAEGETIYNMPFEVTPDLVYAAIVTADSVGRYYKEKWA
Protocol: as §1
as §2, with “Combination of these two mutations led strain QZ19 to produce D-lactic acid at a titer close to 100 g/L in 48 hours at pH 5.0 and 50° C. in pH-controlled fermentations.” left out

CC(=O)C(=O)O [3] = experiment: Kinetic properties of mutated glycerol dehydrogenase F245S; type: biochemical, Bacillus coagulans; conditions: other: F245S, 55° C., pH 5.0
Protocol: as §1, §2

OCC(O)CO [4] = experiment: as above; type: biochemical, Bacillus coagulans; conditions: other: F245S, 55° C., glycerol oxidation, pyruvate reduction or lactate oxidation, pH 5.0
Protocol: as §1, §2

C[C@@H](O)C(=O)O = experiment: Kinetic properties of mutated glycerol dehydrogenase D121N; type: biochemical, Bacillus coagulans; conditions: other: D121N, 55° C., pH 5.0
Protocol: as §1, §2

CC(=O)C(=O)O [5] = experiment: as above; type: biochemical, Bacillus coagulans; conditions: other: D121N, 55° C., pH 5.0
Protocol: as §1, §2

OCC(O)CO [6] = experiment: as above; type: biochemical, Bacillus coagulans; conditions: other: D121N, 55° C., pH 5.0
Protocol: as §1, §2

[7] = substrate: OCC(O)CO; experiment: purified protein, by the assay type; conditions: other: column head, D121N; 55° C.; pH 5.0; 55.0 °C
[8] = substrate: CC(=O)C(=O)O; experiment: purified protein, by the assay type; conditions: other: enzyme with both changes; pH 5.0; 50.0 °C
[9] = substrate: OCC(O)CO; experiment: purified protein, by the assay type; type: biochemical, Bacillus coagulans; conditions: other: Native, 55° C., glycerol oxidation, pyruvate reduction or lactate oxidation, pH 5.0
Protocol: as §1
as §2, with “Combination of these two mutations led strain QZ19 to produce D-lactic acid at a titer close to 100 g/L in 48 hours at pH 5.0 and 50° C. in pH-controlled fermentations.” left out

[10] = substrate: NC(=O)C1=CN([C@@H]2O[C@H](COP(=O)(O)OP(=O)(O)OC[C@H]3O[C@@H](n4cnc5c(N)ncnc54)[C@H](O)[C@@H]3O)[C@@H](O)[C@H]2O)C=CC1; experiment: purified protein, by the assay type; conditions: other: Native, 55° C., glycerol oxidation, pyruvate reduction or lactate oxidation, pH 5.0

With `OCC(O)CO` [Glycerol] the “change in apparent Km for glycerol” value [1] was “slight increase” and the “efficiency at oxidizing glycerol with NAD^+ relative to reducing pyruvate using NADH” value [2] was “about 1,000 times”.

In the case of “Bacillus coagulans glycerol dehydrogenase (GlyDH/GDH, native SEQ ID NO: 3) variant F245S (Heyndrickxia coagulans; F245S)”, the kcat (CC(=O)C(=O)O [3]) is reported as 19.5 s⁻¹, the kcat/Km (CC(=O)C(=O)O [3]) is reported as 80 M⁻¹ s⁻¹ and the kcat (OCC(O)CO [4]) is reported as 62.5 s⁻¹. It also gave a kcat/Km (OCC(O)CO [4]) of 800 M⁻¹ s⁻¹.

“Bacillus coagulans glycerol dehydrogenase (GlyDH/GDH, native SEQ ID NO: 3) variant D121N (Heyndrickxia coagulans; D121N)” showed a kcat (C[C@@H](O)C(=O)O) of 1.9 s⁻¹, a kcat/Km (C[C@@H](O)C(=O)O) of 8 M⁻¹ s⁻¹ and a kcat (CC(=O)C(=O)O [5]) of 2.0 s⁻¹. The kcat/Km (CC(=O)C(=O)O [5]) was 3 M⁻¹ s⁻¹, the kcat (OCC(O)CO [6]) was 13.2 s⁻¹ and the kcat/Km (OCC(O)CO [6]) was 100 M⁻¹ s⁻¹.

B1: Bacillus coagulans glycerol dehydrogenase (GlyDH/GDH, native SEQ ID NO: 3) variant F245S, D121N (GlyDH*, strain QZ19, SEQ ID NO: 1) (Heyndrickxia coagulans; … (protein)
chain: MTKIITSPSKFIQGPDELSRLSAYTERLGKKAFIIADDFVTGLVGKTVEESYAGKETGYQMALFGGECSKPEIERLCEMSKSEEADVVVGIGGGKTLDTAKAVGYYNNIPVIVAPTIASTNAPTSALSVIYKENGEFEEYLMLPLNPTFVIMDTKVIASAPARLLVSGMGDALATYFEARATKRANKTTMAGGRVTEAAIALAKLCYDTQILEGLKAKLAAEKHLVTEAVEKIIEANTYLSGIGSESGGLAAAHAIHNGLTVLEETHHMYHGEKVAFGTLAQLILEDAPKAEIEEVVSFCLSVGLPVTLGDLGVKELNEEKLRKVAELSCAEGETIYNMPFEVTPDLVYAAIVTADSVGRYYKEKWA
With B1 the kcat [7] was 16.7 s⁻¹, the kcat/Km [7] was 100 M⁻¹ s⁻¹ and the Km [8] was 51000 µM.

B2: Bacillus coagulans glycerol dehydrogenase (GlyDH/GDH), native, strain P4-102B, SEQ ID NO: 3 (Heyndrickxia coagulans) (protein)
chain: B1 chain with N121D, S245F
Work on B2 yielded a kcat [9] of 28.0 s⁻¹, a kcat/Km [9] of 2400 M⁻¹ s⁻¹ and a Km [10] of 400 µM.
